These results are taken from publication PMC11327461, “Exogenous serpin B1 restricts immune complex-mediated NET formation via inhibition of a chymotrypsin-like protease and enhances microbial phagocytosis” (The Journal of Biological Chemistry, 2024).

The target in this test is T1, recombinant human serpin B1, wild type (C344) (human, UniProt P30740 1-379).
T1 construct: serpin B1, human, recombinant, wild type (C344); non-glycosylated, 42 kDa by the discussion; also called rhsB1; sB1; source: yeast S. cerevisiae, purified
T1 sequence (looked up): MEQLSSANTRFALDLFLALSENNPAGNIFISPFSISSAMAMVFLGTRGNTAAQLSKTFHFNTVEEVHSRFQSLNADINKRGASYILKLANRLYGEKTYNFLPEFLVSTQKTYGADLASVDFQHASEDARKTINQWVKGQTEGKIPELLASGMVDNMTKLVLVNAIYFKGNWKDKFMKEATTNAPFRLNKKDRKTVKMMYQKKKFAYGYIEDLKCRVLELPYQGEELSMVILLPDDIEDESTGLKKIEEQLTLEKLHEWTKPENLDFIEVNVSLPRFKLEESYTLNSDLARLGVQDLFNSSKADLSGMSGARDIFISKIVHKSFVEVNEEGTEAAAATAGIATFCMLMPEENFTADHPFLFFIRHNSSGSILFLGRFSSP
In words: formation of SDS- and heat-stable serpin-protease complexes, SDS-PAGE; 2 uL of hNE, hPR3 or hCG (23.4 uM each) mixed with each sB1 protein at 1:1 molar ratio in 20 uL PBS, pH 7.4, 15 min; stopped with protease inhibitor mix; reducing sample buffer, heated, SDS-PAGE. The note with it: both partners purified.

B1: cathepsin G (enzyme, human, UniProt P08311 21-244, looked up)
chain: IIGGRESRPHSRPYMAYLQIQSPAGQSRCGGFLVREDFVLTAAHCWGSNINVTLGAHNIQRRENTQQHITARRAIRHPQYNQRTIQNDIMLLQLSRRVRRNRNVNPVALPRAQEGLRPGTLCTVAGWGRVSMRRGTDTLREVQLRVQRDRQCLRIFGSYDPRRQICVGDRRERKAAFKGDSGGPLLCNNVAHGIVSYGKSSGVPPEVFTRVSSFLPWIRTTMRS
notes: cathepsin G (hCG), neutrophil serine protease; also called hCG; Cat G; source: bought: Athens Research and Technology
With B1, the binding result is recorded as “binds”.

B2: proteinase 3 (enzyme, human, UniProt P24158 28-248, looked up)
chain: IVGGHEAQPHSRPYMASLQMRGNPGSHFCGGTLIHPSFVLTAAHCLRDIPQRLVNVVLGAHNVRTQEPTQQHFSVAQVFLNNYDAENKLNDVLLIQLSSPANLSASVATVQLPQQDQPVPHGTQCLAMGWGRVGAHDPPAQVLQELNVTVVTFFCRPHNICTFVPRRKAGICFGDSGGPLICDGIIQGIDSFVIWGCATRLFPDFFTRVALYVDWIRSTLR
notes: hPR3, neutrophil serine protease; also called hPR3; PR3; source: bought: Athens Research and Technology
Turning to B2, the binding result is on record as “binds”.
